Measured values taken from patent US20240368285A1 (HEFEI TG IMMUNOPHARMA, published 2024).

Tests used:
[1] = molecular target: T1, MICA008α3-Fc (human); experiment: ELISA on coated MICA*008 α3-Fc (1 µg/ml), HRP anti-human Fab secondary, OD450
T1 construct: also called MICA*008-Fc; domain α3 of MICA-008 Fc fusion protein
Description: (§1) After the antibodies were added, signal intensity was used for judging the binding characteristics of the antibodies and MICA and MICB.
(§2) The fusion proteins (produced in the Applicant's laboratory; an amino acid sequence of MICA002α3-Fc is as set forth in SEQ ID NO: 22; an amino acid sequence of MICA005α3-Fc is as set forth in SEQ ID NO: 24; an amino acid sequence of MICA008α3-Fc is as set forth in SEQ ID NO: 25; an amino acid sequence of MICA004α3-Fc is as set forth in SEQ ID NO: 23; an amino acid sequence of MICB001α3-Fc is as set forth in SEQ ID NO: 26; and an amino acid sequence of MICB005α3-Fc is as set forth in SEQ ID NO: 27) were diluted to a concentration of 1 μg/ml with PBS and then added into a 96-well plate in a volume of 100 μl/well. The plate was placed at 4° C. overnight. The PBS in the 96-well plate was removed by sucking. After the plate was washed with PBST (that is, PBS having a pH value of 7.2 included 0.1 volume % of Tween 20) for 6 times, PBS containing 10% of BSA was added in a volume of 200 μl/well. The plate was incubated at 37° C. for 2 hours for blocking. The blocking solution was removed. […]

[2] = molecular target: T2, MICB005α3-Fc; experiment: ELISA on coated MICB*005 α3-Fc (1 µg/ml), HRP anti-human Fab secondary, OD450
T2 construct: also called MICB*005-Fc; domain α3 of MICB-005 Fc fusion protein
T2 sequence (chain, as listed by the source limits assumed): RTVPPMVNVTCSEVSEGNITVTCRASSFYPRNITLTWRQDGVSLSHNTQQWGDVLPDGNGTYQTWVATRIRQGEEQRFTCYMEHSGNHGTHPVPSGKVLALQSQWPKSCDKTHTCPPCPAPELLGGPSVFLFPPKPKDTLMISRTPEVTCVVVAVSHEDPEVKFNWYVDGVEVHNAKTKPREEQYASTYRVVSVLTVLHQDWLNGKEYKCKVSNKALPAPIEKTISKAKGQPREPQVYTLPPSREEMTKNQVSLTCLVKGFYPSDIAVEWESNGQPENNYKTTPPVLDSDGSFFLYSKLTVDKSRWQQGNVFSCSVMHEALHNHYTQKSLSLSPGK
Description: as §1, §2

[3] = molecular target: T3, MICA004α3-Fc (human); experiment: ELISA on coated MICA*004 α3-Fc (1 µg/ml), HRP anti-human Fab secondary, OD450
T3 construct: also called MICA*004-Fc; domain α3 of MICA-004 Fc fusion protein
T3 sequence (chain, as listed by the source limits assumed): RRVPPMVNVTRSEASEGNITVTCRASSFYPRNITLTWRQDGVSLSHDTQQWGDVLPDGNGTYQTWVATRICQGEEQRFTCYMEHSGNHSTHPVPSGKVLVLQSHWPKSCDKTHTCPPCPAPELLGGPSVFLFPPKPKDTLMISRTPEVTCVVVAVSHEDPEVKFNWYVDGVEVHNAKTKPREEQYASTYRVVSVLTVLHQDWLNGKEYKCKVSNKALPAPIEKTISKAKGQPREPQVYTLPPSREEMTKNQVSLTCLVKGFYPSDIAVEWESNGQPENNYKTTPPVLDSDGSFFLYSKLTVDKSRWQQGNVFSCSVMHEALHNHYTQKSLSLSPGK
Description: as §1, §2

[4] = molecular target: T4, MICA002α3-Fc (human); experiment: ELISA on coated MICA*002 α3-Fc (1 µg/ml), HRP anti-human Fab secondary, OD450
T4 construct: Produced in the Applicant's laboratory; also called MICA*002-Fc; domain α3 of MICA-002 Fc fusion protein
T4 sequence (chain, as listed by the source limits assumed): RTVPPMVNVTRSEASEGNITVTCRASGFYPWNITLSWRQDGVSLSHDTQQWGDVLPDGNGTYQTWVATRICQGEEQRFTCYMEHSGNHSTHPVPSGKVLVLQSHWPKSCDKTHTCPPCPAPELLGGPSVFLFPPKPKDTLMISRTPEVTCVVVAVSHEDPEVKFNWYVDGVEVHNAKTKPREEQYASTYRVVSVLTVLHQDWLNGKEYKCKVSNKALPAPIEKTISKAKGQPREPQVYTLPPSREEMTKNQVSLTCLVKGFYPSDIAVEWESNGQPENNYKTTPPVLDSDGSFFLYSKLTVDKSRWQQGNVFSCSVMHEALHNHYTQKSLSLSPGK
Description: as §1, §2

[5] = molecular target: T5, MICA005α3-Fc (human); experiment: ELISA on coated MICA*005 α3-Fc (1 µg/ml), HRP anti-human Fab secondary, OD450
T5 construct: also called MICA*005-Fc; domain α3 of MICA-005 Fc fusion protein
T5 sequence (chain, as listed by the source limits assumed): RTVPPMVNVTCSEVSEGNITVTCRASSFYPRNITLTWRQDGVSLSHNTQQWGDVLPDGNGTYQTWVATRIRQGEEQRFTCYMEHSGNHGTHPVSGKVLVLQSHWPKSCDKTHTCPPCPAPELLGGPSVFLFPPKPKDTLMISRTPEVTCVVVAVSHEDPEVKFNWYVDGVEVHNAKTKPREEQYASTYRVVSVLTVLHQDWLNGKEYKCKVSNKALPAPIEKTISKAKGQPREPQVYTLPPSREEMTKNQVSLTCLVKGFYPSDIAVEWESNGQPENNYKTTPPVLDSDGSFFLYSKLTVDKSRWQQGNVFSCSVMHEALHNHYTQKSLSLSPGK
Description: as §1, §2

[6] = molecular target: T6, MICA on human tumor cells (A-375, A549, HCT-15, MDA-MB-231) (human, UniProt Q29983 24-383); experiment: flow cytometry on HCT-15 cells, Alexa-647 goat anti-human secondary, average fluorescence intensity
T6 construct: whole, on cells
T6 sequence (looked up): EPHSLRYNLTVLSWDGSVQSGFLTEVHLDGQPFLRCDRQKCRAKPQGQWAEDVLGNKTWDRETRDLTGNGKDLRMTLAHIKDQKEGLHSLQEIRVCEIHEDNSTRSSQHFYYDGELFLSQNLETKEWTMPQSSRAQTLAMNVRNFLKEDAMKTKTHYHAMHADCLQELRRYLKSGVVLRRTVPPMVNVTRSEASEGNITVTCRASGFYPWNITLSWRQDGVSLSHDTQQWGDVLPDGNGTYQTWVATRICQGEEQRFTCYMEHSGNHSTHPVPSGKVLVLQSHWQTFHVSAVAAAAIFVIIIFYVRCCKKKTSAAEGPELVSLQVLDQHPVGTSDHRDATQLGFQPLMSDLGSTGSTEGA
Description: (1) Tumor cells were diluted to a density of 2×10⁶/mL with PBS and then added into a 1.5 ml EP tube in a volume of 100 l/tube. 10 l/tube of goat serum was added into the EP tube; and blocking was conducted at 4° C. for 30 min. Antibody h5A1 (having a heavy chain sequence as set forth in SEQ ID NO: 11 and a light chain sequence as set forth in SEQ ID NO: 12), antibody h5A1002 (having a heavy chain sequence as set forth in SEQ ID NO: 13 and a light chain sequence as set forth in SEQ ID NO: 14), and control IgG1 (purchased from Biointron) were gradient-diluted (at a highest working concentration of 50 μg/ml, 10 gradients, diluted by 3 times for each gradient) and added. The tube was incubated at 4° C. for 30 min. 1 mL of PBS was added into the EP tube, and centrifugation was conducted 4° C. at a rate of 3,500 rpm for 5 min. The supernatant was removed. The EP tube was washed once with the PBS. The supernatant was removed after centrifugation. The cells were resuspended with PBS in a volume of 100 l/tube. An Alexa-647 labeled goat anti-human secondary antibody (purchased from Jackson lab) was added into the tube in a volume of 1 l/tube; and the plate was incubated in the dark at 4° C. for 30 min. The tube was washed twice with PBS, and the supernatant was removed after centrifugation. […]

[7] = molecular target: T7, MICB001α3-Fc; experiment: ELISA on coated MICB*001 α3-Fc (1 µg/ml), HRP anti-human Fab secondary, OD450
T7 construct: also called MICB*001-Fc; domain α3 of MICB-001 Fc fusion protein
T7 sequence (chain, as listed by the source limits assumed): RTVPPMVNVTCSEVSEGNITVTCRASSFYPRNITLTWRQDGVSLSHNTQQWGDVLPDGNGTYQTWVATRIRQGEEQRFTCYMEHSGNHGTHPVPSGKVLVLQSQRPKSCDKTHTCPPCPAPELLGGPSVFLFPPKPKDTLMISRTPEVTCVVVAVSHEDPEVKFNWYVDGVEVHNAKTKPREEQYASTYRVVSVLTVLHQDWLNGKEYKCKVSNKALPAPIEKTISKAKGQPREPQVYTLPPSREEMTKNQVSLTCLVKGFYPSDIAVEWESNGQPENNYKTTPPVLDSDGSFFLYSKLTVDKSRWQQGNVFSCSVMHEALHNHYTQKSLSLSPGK
Description: as §1, §2

[8] = molecular target: T8, MICA protein (SPR analyte) (human, UniProt Q29983 24-308, limits assumed); experiment: SPR, Biacore 8K, antibody captured on protein A chip, MICA as analyte
T8 construct: also called major histocompatibility complex class I chain related polypeptide A
T8 sequence: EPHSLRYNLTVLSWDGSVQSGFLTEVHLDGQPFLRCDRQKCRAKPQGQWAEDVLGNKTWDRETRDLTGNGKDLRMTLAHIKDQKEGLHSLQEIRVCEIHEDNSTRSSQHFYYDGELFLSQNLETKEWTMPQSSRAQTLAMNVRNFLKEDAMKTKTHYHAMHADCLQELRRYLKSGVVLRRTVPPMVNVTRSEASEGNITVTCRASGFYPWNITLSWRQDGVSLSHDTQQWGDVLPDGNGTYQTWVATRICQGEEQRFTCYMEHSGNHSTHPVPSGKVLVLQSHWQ
Description: In a Biacore 8K (Cytiva) system, the antibody was diluted to a concentration of 10 µg/mL with running buffer (HBS-EP), and the antibody was conjugated onto a protein A (Cytiva, 29127556) chip at a flow rate of […].
Kinetic and affinity data of binding of the maternal antibody h5A1 and the affinity maturation antibody h5A1002 and MICA were detected.

T1 sequence (chain, as listed by the source limits assumed): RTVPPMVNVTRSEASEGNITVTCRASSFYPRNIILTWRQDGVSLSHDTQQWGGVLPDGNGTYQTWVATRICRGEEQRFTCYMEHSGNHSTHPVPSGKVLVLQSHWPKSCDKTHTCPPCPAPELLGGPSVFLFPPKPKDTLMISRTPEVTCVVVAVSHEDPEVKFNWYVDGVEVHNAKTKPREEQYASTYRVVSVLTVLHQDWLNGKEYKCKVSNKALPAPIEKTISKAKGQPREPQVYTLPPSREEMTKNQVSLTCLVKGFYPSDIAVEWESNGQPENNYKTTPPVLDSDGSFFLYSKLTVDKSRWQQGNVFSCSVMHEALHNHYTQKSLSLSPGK

binding result [1]: binds
EC50 (read off the curve) [2]: ~0.05 µg/mL
EC50 (read off the curve) [3]: ~0.07 µg/mL
EC50 (read off the curve) [4]: ~0.3 µg/mL
EC50 (read off the curve) [5]: ~0.4 µg/mL
EC50 (read off the curve) [6]: ~3 µg/mL
EC50 (read off the curve) [7]: ~0.07 µg/mL
Kd [8]: 215 nM
koff [8]: 0.000641 s⁻¹
kon [8]: 2970 M⁻¹ s⁻¹
B1: maternal humanized antibody h5A1 (antibody, human IgG1, kappa, V domains shown)
VH: QVQLQESGPGLVKPSETLSLTCTVSGFSLTTYGVHWIRQPPGKGLEWIGMIWTDGTTDYNAAFISRVTISVDTSKNQFSLKLSSVTAADTAVYYCARKGHGYYYAMDYWGQGTLVTVSS
VL: EIVLTQSPGTLSLSPGERATLSCTASSSVSSSYLHWYQQKPGQAPRLLIYSTSNLASGIPDRFSGSGSGTDFTLTISRLEPEDFAVYYCHQYHRSPFTFGQGTKLEIKR
notes: Human IgG1, kappa; The full chains are stated for the ELISA and flow cytometry; also called h5A1-hIgG1; maternal antibody h5A1
